Positions count from the first letter of the chain named. In names and notes the source's numbering stands.
B1: MS1032LO06-SG1 (M103205H795-SG1/M103202L889-SK1) (antibody, human IgG1, kappa)
heavy: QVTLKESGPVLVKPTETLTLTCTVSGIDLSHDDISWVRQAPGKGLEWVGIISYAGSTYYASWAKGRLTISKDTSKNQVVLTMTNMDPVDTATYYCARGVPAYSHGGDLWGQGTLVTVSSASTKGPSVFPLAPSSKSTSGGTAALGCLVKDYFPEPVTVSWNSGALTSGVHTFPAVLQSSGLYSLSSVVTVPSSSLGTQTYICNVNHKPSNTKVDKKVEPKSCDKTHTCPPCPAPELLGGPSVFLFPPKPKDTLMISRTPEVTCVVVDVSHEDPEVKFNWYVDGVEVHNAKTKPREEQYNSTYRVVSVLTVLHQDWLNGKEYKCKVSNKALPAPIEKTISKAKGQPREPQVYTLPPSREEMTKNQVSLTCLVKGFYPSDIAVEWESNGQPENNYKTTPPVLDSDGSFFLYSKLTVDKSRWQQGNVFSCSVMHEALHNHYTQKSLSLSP
light: DIVMTQSPATLSLSPGERATLSCTSSQSVYHANWLSWFQQKPGQPPKLLIYWASTLAYGVPSRFSGSGSGTDFTLTISSLQPEDAATYYCAGGYGGGRYAFGQGTKVEIKRTVAAPSVFIFPPSDEQLKSGTASVVCLLNNFYPREAKVQWKVDNALQSGNSQESVTEQDSKDSTYSLSSTLTLSKADYEKHKVYACEVTHQGLSSPVTKSFNRGEC
notes: Anti-latent myostatin antibody
B2: MS1032LO06-MY201 (M103205H795-MY201/M103202L889-SK1) (antibody, human IgG1, kappa)
heavy: QVTLKESGPVLVKPTETLTLTCTVSGIDLSHDDISWVRQAPGKGLEWVGIISYAGSTYYASWAKGRLTISKDTSKNQVVLTMTNMDPVDTATYYCARGVPAYSHGGDLWGQGTLVTVSSASTKGPSVFPLAPSSKSTSGGTAALGCLVKDYFPEPVTVSWNSGALTSGVHTFPAVLQSSGLYSLSSVVTVPSSSLGTQTYICNVNHKPSNTKVDKKVEPKSCDKTHTCPPCPAPELLNGPSVFLFPPKPKDTLMISRTPEVTCVVVDVSDEDPEVKFNWYVDGVEVHNAKTKPREEQYNSTYRVVSVLTVLHQDWLNGKEYKCKVSNKALPKPIEKTISKAKGQPREPQVYTLPPSREEMTKNQVSLTCLVKGFYPSDIAVEWESNGQPENNYKTTPPVLDSDGSFFLYSKLTVDKSRWQQGNVFSCSVMHEALHNHYTQKSLSLSP
light: B1 light
notes: CH MY201 = SG1 with G236N/H268D/A330K (EU numbering); also called MS103205H795-MY201
B3: MS1032LO06-MY351 (M103205H795-MY351/M103202L889-SK1) (antibody, human IgG1, kappa)
heavy: B2 heavy with Q313R, D415K
light: B1 light
notes: CH MY351 = SG1 with G236N/H268D/Q311R/A330K/D413K (EU numbering); also called MS103205H795-MY351
B4: MS1032LO06-MY352 (M103205H795-MY352/M103202L889-SK1) (antibody, human IgG1, kappa, name in EU numbering)
heavy: B2 heavy with Q313R, D415R
light: B1 light
notes: Printed substitutions: G236N/H268D/Q311R/A330K/D413R (EU numbering); also called MS103205H795-MY352
B5: MS1032LO06-PK55 (M103205H795-PK55/M103202L889-SK1) (antibody, human IgG1, kappa)
heavy: B2 heavy with Q313R, P345R
light: B1 light
notes: CH PK55 = SG1 with G236N/H268D/Q311R/A330K/P343R (EU numbering); also called MS103205H795-PK55
B6: MS1032LO06-PK56 (M103205H795-PK56/M103202L889-SK1) (antibody, human IgG1, kappa)
heavy: B2 heavy with Q313R, P345R, D415R
light: B1 light
notes: CH PK56 = SG1 with G236N/H268D/Q311R/A330K/P343R/D413R (EU numbering); also called MS103205H795-PK56
B7: MS1032LO06-PK57 (M103205H795-PK57/M103202L889-SK1) (antibody, human IgG1, kappa)
heavy: B2 heavy with Q313R, N386R, D415R
light: B1 light
notes: CH PK57 = SG1 with G236N/H268D/Q311R/A330K/N384R/D413R (EU numbering); also called MS103205H795-PK57

Key:
[1] = target: T1, cynomolgus monkey FcγRIIa1 extracellular domain, C-terminal His-tag (cynomolgus monkey); test: SPR (BIACORE), antibody captured, soluble FcgR as analyte, 25C
T1 construct: also called cyno FcγRIIa1; FcgRIIa1; not shown: His-tag added to the C-terminus
T1 chain: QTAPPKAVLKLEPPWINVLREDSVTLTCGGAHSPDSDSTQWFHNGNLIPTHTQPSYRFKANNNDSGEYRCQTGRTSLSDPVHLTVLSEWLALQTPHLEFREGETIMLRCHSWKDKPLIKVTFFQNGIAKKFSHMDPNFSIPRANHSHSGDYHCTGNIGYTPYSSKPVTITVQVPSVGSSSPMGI
Procedure: (§1) The kinetic analysis of interactions between these antibodies and FcγR was carried out using BIACORE® T200 or BIACORE® 4000 (GE Healthcare). HBS-EP+ (GE Healthcare) was used as the running buffer, and the measurement temperature was set to 25° C. A chip produced by immobilizing Protein A. Protein A/G or mouse anti-human IgG kappa light chain (BD Biosciences) onto a Series S Sensor Chip CM4 or CM5 (GE Healthcare) by the amine-coupling method was used. […] After the measurement, the antibody captured on the chip was washed off by allowing reaction with 10 mM glycine-HCl, pH1.5 and 25 mM NaOH so that the chip was regenerated and used repeatedly. The sensorgrams obtained as measurement results were analyzed by the 1:1 Langmuir binding model using the BIACORE® Evaluation Software to calculate the binding rate constant ka (L/mol/s) and dissociation rate constant kd (l/s), and the dissociation constant KD (mol/L) was calculated from these values. […] Regarding such interactions, KD values were calculated using the following 1:1 binding model described in BIACORE® T100 Software Handbook BR1006-48 Edition AE.
(§2) The behavior of interacting molecules according to the 1:1 binding model on BIACORE® can be described by Equation 1: Req=C·R max/(KD+C)+RI, wherein, Req is a plot of steady-state binding levels to analyte concentration. C is concentration, RI is bulk refractive index contribution in the sample, and Rmax is analyte binding capacity of the surface. When this equation is rearranged, KD can be expressed as Equation 2: KD=C·Rmax/(Req−RI)−C. KD can be calculated by substituting the values of Rmax, RI, and C into Equation 1 or Equation 2. From the current measurement conditions, RI=0, C=2 μmol/L can be used.

[2] = target: T2, human FcγRIIaH extracellular domain, C-terminal His-tag (human, UniProt P12318 34-217); test: as above
T2 construct: also called human FcγRIIa (type H); FcgRIIaH; not shown: His-tag added to the C-terminus
T2 sequence: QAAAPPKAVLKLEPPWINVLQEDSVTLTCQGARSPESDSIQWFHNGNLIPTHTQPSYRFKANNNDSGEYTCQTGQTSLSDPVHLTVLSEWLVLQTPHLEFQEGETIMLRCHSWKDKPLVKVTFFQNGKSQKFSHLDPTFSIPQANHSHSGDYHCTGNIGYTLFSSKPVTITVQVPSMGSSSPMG
Procedure: as §1, §2

[3] = target: T3, cynomolgus monkey FcγRIIa2 extracellular domain, C-terminal His-tag (cynomolgus monkey); test: as above
T3 construct: also called cyno FcγRIIa2; FcgRIIa2; not shown: His-tag added to the C-terminus
T3 chain: T1 chain with P95T, T121A, I127K, A128S, K130N, D135N, R142Q
Procedure: as §1, §2

[4] = target: T4, cynomolgus monkey FcγRIIa3 extracellular domain, C-terminal His-tag (cynomolgus monkey); test: as above
T4 construct: also called cyno FcγRIIa3; FcgRIIa3; not shown: His-tag added to the C-terminus
T4 chain: T1 chain with P95T, T121A, A128S, H133P, D135N
Procedure: as §1, §2

[5] = target: T5, cynomolgus monkey FcγRIIb extracellular domain, C-terminal His-tag (cynomolgus monkey); test: as above
T5 construct: also called cyno FcγRIIb; cynoFcγRIIb; not shown: His-tag added to the C-terminus
T5 chain: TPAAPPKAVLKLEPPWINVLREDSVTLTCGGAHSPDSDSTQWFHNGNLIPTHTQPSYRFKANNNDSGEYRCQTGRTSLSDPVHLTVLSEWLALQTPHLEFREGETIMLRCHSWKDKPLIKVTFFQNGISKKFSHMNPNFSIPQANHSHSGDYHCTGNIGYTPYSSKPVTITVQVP
Procedure: as §1, §2

[6] = target: T6, human FcγRIIIaV extracellular domain, C-terminal His-tag (human, UniProt P08637 17-208); test: as above
T6 construct: also called FcgRIIIaV; not shown: His-tag added to the C-terminus
Procedure: as §1, §2

[7] = target: T7, human FcγRIIaR extracellular domain, C-terminal His-tag (human, UniProt P12318 34-217); test: as above
T7 construct: also called human FcγRIIa (type R); FcgRIIaR; not shown: His-tag added to the C-terminus
T7 chain: T2 sequence with H134R
Procedure: as §1, §2

[8] = target: T1, cynomolgus monkey FcγRIIa1 …; test: SPR; KD of SG1 divided by KD of variant;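 also: relative to parent M103205H795-SG1 carrying the SG1 human heavy chain constant region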
Procedure: as §1

[9] = target: T6, human FcγRIIIaV extracellular domain, …; test: SPR; KD of SG1 divided by KD of variant;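 also: relative to parent M103205H795-SG1 carrying the SG1 human heavy chain constant region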
Procedure: as §1

T6 sequence (P08637 17-208 F176V): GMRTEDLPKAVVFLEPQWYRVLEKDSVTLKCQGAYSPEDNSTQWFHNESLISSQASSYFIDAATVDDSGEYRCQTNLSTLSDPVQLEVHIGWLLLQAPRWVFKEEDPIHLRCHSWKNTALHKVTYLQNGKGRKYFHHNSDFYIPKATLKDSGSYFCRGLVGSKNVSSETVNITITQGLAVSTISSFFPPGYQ

| Binder | Kd [1] | Kd [2] | Kd [3] | Kd [4] | Kd [5] | Kd [6] | Kd [7] | KD fold (SG1 = 1) [8] | KD fold (SG1 = 1) [9] |
| --- | --- | --- | --- | --- | --- | --- | --- | --- | --- |
| B1 | 4800 nM | 890 nM | 4700 nM | 8600 nM | 1900 nM | 620 nM | 1000 nM | 1 fold | 1 fold |
| B2 | 1500 nM | 980 nM | 1200 nM | 1800 nM | 330 nM | 37000 nM | 1200 nM | 3.2 fold | 0.02 fold |
| B3 | 1600 nM | 1200 nM | 1300 nM | 2200 nM | 380 nM | 7400 nM | 1600 nM | 3 fold | 0.08 fold |
| B4 | 1700 nM | 1200 nM | 1300 nM | 2200 nM | 420 nM | 11000 nM | 1600 nM | 2.7 fold | 0.06 fold |
| B5 | 1400 nM | 830 nM | 1200 nM | 2000 nM | 360 nM | 13000 nM | 1500 nM | 3.3 fold | 0.05 fold |
| B6 | 1800 nM | 1200 nM | 1500 nM | 2500 nM | 500 nM | 10000 nM | 1900 nM | 2.6 fold | 0.06 fold |
| B7 | 1900 nM | 1300 nM | 1700 nM | 3100 nM | 520 nM | 23000 nM | 2200 nM | 2.5 fold | 0.03 fold |

Source: US20200317768A1 (published 2020)
